B1: Calcium and integrin-binding protein 1 (Homo sapiens), Q99828-1 (parent)
chain: MGGSGSRLSKELLAEYQDLTFLTKQEILLAHRRFCELLPQEQRSVESSLRAQVPFEQILSLPELKANPFKERICRVFSTSPAKDSLSFEDFLDLLSVFSDTATPDIKSHYAFRIFDFDDDGTLNREDLSRLVNCLTGEGEDTRLSASEMKQLIDNILEESDIDRDGTINLSEFQHVISRSPDFASSFKIVL

Key:
Details in all cases: with psn2_human PSEN2, P49810
psn2_human PSEN2, P49810 [1] = variants of: B1
psn2_human PSEN2, P49810 [2] = variants of: B1; remark: listed apart in the source
psn2_human PSEN2, P49810 [3] = variants of: B1; remark: listed apart in the source

| Variant | effect of a mutation on the interaction (psn2_human PSEN2, P49810 [1]) | effect of a mutation on the interaction (psn2_human PSEN2, P49810 [2]) | effect of a mutation on the interaction (psn2_human PSEN2, P49810 [3]) |
| --- | --- | --- | --- |
| D127N | disrupting interaction strength | decreasing interaction |  |
| D127N;E172Q | disrupting interaction strength | decreasing interaction |  |
| E172Q | disrupting interaction strength | decreasing interaction | decreasing interaction strength |

— IntAct's records for PubMed 15475008
